Data: PMC5887453 (Nucleic Acids Research, 2018)

Assays:
Assay in all cases: native gel or EMSA
PhoEF-2 M167S = molecular target: T1, PhoEF-2 M167S (Pyrococcus horikoshii, UniProt O59521 1-732, M167S)
T1 sequence (looked up): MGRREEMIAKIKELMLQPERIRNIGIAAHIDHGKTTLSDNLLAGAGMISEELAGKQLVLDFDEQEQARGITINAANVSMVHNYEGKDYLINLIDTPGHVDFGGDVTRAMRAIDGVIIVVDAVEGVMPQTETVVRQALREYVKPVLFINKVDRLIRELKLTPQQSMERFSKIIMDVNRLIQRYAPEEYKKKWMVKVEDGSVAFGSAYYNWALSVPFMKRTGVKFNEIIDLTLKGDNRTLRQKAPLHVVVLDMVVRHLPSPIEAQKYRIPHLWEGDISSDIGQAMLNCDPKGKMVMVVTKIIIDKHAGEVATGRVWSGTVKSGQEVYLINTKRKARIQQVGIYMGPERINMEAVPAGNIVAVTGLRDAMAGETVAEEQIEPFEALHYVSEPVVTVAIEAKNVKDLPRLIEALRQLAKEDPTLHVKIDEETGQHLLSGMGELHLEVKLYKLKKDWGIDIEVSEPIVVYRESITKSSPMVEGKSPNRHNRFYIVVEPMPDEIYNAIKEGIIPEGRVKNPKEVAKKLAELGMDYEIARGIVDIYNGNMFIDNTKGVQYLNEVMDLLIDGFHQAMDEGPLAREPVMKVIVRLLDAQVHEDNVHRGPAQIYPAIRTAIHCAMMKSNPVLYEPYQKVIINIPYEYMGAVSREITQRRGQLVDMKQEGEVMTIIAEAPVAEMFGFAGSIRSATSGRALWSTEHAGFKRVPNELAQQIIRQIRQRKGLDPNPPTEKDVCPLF

PhoEF-2 F205S = molecular target: T2, PhoEF-2 F205S (Pyrococcus horikoshii, UniProt O59521 1-732, F205S)
T2 sequence (looked up): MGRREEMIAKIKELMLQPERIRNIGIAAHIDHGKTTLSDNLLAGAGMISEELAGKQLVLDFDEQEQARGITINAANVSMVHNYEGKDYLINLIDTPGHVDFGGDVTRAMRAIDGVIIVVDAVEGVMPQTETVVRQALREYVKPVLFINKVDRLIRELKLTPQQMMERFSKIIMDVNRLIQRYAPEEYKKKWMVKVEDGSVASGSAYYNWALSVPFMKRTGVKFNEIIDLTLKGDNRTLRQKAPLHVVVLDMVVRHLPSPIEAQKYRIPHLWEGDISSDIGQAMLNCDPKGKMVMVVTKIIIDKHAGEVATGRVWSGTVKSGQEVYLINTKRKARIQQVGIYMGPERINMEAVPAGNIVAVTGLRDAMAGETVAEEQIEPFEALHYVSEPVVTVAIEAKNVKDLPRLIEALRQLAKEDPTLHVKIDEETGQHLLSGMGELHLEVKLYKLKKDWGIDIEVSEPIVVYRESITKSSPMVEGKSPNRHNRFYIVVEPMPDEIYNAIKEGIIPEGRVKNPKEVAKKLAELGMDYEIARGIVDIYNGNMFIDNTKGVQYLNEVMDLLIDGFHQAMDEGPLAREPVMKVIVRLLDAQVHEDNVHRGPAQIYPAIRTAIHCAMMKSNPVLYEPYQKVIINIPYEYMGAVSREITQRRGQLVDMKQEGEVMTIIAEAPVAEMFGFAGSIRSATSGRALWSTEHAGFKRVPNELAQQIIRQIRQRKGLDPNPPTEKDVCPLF

PhoEF-2 M168S = molecular target: T3, PhoEF-2 M168S (Pyrococcus horikoshii, UniProt O59521 1-732, M168S)
T3 sequence (looked up): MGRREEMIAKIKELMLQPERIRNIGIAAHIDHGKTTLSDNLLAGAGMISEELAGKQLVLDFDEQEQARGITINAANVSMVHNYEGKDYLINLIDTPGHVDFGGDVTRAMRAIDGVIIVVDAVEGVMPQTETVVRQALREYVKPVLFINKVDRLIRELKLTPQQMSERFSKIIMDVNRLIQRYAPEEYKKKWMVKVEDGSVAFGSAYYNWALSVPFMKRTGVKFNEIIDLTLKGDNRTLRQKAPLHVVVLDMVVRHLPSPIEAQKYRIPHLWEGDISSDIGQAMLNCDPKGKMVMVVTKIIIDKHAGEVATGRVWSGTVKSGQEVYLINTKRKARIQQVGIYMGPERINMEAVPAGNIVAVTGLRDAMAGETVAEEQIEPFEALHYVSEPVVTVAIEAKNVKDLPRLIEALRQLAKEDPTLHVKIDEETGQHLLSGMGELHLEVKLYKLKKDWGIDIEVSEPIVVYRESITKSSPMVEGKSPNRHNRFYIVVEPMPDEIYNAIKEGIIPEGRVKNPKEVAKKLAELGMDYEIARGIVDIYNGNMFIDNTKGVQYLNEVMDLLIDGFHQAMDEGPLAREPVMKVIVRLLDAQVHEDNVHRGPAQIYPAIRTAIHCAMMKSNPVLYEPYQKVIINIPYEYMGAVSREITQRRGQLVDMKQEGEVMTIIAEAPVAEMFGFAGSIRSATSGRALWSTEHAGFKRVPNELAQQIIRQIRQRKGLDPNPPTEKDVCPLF

Measured: binding result

B1: Pyrococcus horikoshii ribosomal stalk protein P1 (natural protein, UniProt O57705 1-108, looked up)
chain: MEYVYAALLLHSVGKEINEENLKAVLQAAGVEPEEARIKALVAALEGVNIDEVIEKAAMPVAVAAAPAAAPAEAGGEEKKEEEKKEEEEKEEEVSEEEALAGLSALFG
modifications: in the SPR only: biotin on amino groups via a PEG linker (EZ-Link NHS-PEG4-Biotin)
binds: PhoEF-2 M167S | PhoEF-2 F205S | PhoEF-2 M168S
